Experimental findings from patent US20180201654A1, “PEPTIDE INHIBITORS OF HAUSP DEUBIQUITINASE” (priority 2012, published 2018) are described below.

In the assay the target is HAUSP TRAF domain (HAUSP^62-205) (human), Q93009. The experiment in a line: ITC, titration against the HAUSP TRAF domain, 20 C.
Sequence of HAUSP TRAF domain (HAUSP^62-205) (human), Q93009 (Q93009 62-205): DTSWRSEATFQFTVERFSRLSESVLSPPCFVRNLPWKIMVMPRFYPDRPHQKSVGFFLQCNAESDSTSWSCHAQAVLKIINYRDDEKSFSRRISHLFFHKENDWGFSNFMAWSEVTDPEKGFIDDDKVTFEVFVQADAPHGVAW

B1: vIRF4^209-216 peptide (peptide)
peptide: EGASTSGM
modifications: not checked
Take B1: the Ka was 100000 M⁻¹, the TΔS is -10.3 kcal/mol, the n is 0.81 and the ΔG is -6.74 kcal/mol. The molecule also showed a ΔH of -17.1 kcal/mol.

B2: EBNA1^435-449 peptide (peptide)
peptide: EQGPADDPGEGPSTG
modifications: not checked
In the case of B2, the Ka came to 2.1e+06 M⁻¹, the Kd turned out to be 480 nM, the TΔS is -8.69 kcal/mol and the n came out at 0.81. Also, the ΔG was -8.48 kcal/mol and the ΔH was -17.2 kcal/mol.
